Assay results as given in publication PMC6546911 (Nature Communications, 2019).

Target: T1, Fen1, budding yeast, wild-type (budding yeast, UniProt P26793 1-382)
T1 construct: Fen1 (flap endonuclease), budding yeast; source: purified
T1 sequence (looked up): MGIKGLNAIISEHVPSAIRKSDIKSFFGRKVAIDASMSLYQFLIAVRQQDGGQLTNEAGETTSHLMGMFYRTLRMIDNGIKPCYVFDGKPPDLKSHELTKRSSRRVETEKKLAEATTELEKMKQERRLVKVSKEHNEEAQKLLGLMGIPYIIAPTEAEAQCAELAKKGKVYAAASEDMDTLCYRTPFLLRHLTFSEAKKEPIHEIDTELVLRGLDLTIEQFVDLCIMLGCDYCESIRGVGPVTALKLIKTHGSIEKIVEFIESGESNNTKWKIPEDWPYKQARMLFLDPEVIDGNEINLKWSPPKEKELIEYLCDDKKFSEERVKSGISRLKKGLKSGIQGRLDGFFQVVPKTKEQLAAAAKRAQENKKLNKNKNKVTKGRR
Assay: pull-down; purified wild-type or mutant Fen1 mixed with PCNA; Fen1 affinity-purified on anti-FLAG beads; co-isolated PCNA by immunoblot
Settings: both partners purified

binding result: binds
B1: Yeast PCNA (Pol30p) (natural protein, budding yeast, UniProt P15873 1-258, looked up)
chain: MLEAKFEEASLFKRIIDGFKDCVQLVNFQCKEDGIIAQAVDDSRVLLVSLEIGVEAFQEYRCDHPVTLGMDLTSLSKILRCGNNTDTLTLIADNTPDSIILLFEDTKKDRIAEYSLKLMDIDADFLKIEELQYDSTLSLPSSEFSKIVRDLSQLSDSINIMITKETIKFVADGDIGSGSVIIKPFVDMEHPETSIKLEMDQPVDLTFGAKYLLDIIKGSSLSDRVGIRLSSEAPALFQFDLKSGFLQFFLAPKFNDEE
notes: PCNA (Pol30p), budding yeast; source: E. coli BL21 (DE3), purified
